The source of these data is publication PMC2121072 (The Journal of Cell Biology, 1996).

Data set [1] concerns the molecule itself. Kind of data set: SEC. In general terms: Size exclusion chromatography separates by hydrodynamic size, large species first.
For data set [2], the target named is T1, GST-PDZ1+2+3 fusion protein of hDlg (human, UniProt Q12959 201-584). Kind of data set: SPR. In general terms: Surface plasmon resonance follows binding to a sensor surface in real time, without labels.
Data set [3] concerns the target T1, GST-PDZ1+2+3 fusion protein of hDlg. Kind of data set: SPR. The source holds these as a separate data set.
For data set [4], the target named is PDZ1+2 (A) module of hDlg (human, UniProt Q12959 205-411). Kind of data set: SPR.

Values joined by “and” are separate entries in the source; they are usually repeats but may differ in a detail not shown here. Equal values may be shown once. Read-outs that look alike come from different tables or passages of the source. Where no end group is shown, it is not given here. The star is where a group is joined. Biotin = O=C1N[C@H]2[C@H](CS[C@H]2CCCCC(=O)*)N1

Sequence of PDZ1+2 (A) module of hDlg (Q12959 205-411): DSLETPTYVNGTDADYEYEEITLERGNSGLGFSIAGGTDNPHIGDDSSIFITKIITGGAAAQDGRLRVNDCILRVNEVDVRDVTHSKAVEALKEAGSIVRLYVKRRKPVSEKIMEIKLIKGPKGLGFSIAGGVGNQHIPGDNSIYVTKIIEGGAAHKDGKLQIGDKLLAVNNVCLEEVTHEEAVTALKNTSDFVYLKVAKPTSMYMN
T1 sequence (Q12959 201-584): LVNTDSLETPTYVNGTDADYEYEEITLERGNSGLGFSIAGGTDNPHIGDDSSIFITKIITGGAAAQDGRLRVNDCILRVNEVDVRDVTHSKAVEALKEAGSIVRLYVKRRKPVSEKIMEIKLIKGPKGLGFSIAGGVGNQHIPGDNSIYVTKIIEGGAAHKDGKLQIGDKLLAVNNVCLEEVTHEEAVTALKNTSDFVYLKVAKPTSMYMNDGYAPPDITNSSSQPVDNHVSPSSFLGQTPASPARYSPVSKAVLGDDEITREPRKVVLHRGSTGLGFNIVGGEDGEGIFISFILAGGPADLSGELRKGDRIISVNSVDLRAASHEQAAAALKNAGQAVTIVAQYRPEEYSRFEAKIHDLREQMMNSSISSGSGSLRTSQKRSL

B1: PDZ3 (A) domain of hDlg (domain or fragment, human, UniProt Q12959 457-558, looked up)
chain: DDEITREPRKVVLHRGSTGLGFNIVGGEDGEGIFISFILAGGPADLSGELRKGDRIISVNSVDLRAASHEQAAAALKNAGQAVTIVAQYRPEEYSRFEAKIH
A word on the stoichiometry N: it is the number of molecules, sites or subunits per partner or assembly. In the case of B1, in data set [1], the “stoichiometry N” value turned out to be 2.

B2: biotinylated synthetic peptide of the COOH terminus of the Kv1.4 potassium channel (peptide)
peptide: Biotin-SGSGDKNNCSNAKAVETDV
A word on the Kd: it is the constant that tells how readily two partners part at equilibrium. A low value points to higher affinity. The koff is the first-order rate constant of dissociation. A higher koff goes with fast dissociation. One may read the kon as a measure of how fast the partners come together. High values mean fast association, low ones slow association. In data set [2], B2 displayed a Kd of 160 nM, a koff of 0.024 s⁻¹ and a kon of 150000 M⁻¹ s⁻¹. Further, in data set [3], the Kd is 11 nM, the koff worked out at 0.002 s⁻¹ and the on-rate constant (kon) is 180000 M⁻¹ s⁻¹. In data set [4], the Kd came to 33 ± 5 nM; the koff is 0.0149 s⁻¹ and 0.0135 s⁻¹; the kon was found to be 413000 M⁻¹ s⁻¹.
